# From patent US20150191542A1
# Substitutions are numbered along the chain they refer to.
# T1: MICA*001 expressed on transfected cells (human)
# T1 sequence: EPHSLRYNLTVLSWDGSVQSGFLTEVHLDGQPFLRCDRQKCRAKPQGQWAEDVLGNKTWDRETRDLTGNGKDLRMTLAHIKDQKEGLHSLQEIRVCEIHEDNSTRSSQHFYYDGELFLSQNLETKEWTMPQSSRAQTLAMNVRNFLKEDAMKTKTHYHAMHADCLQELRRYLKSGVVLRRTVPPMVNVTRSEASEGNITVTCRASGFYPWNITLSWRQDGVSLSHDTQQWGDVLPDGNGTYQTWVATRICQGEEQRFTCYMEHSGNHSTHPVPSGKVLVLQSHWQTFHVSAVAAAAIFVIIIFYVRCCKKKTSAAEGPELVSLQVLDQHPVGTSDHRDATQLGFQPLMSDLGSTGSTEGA
# B1: CHG1-M-MIA-12A10 (antibody, from a related filing, V domains shown)
# VH: QVQLQQSGADLVRPGASVRLSCRASGYSFTNYWMNWVKQRPGQGLEWIGMIHPSDSETRLNQKFKDKATLTVDKSSNTAYMQLSSPTSEDSAIYYCARDDFFTMDYWGQGTSVTVSS
# VL: DILLTQSPAILSVSPGERVSFSCRASQNIVTSIHWYQQSTNGSPRLLIKYASESISGIPSRFSGSGSGTDFTLTINSVESEDVADYYCQQSNIWPLTFGAGTKLELK
# B2: CHG1-M-MIA-18E8 (antibody, from a related filing, V domains shown)
# VH: DVQLQESGPDLVNPSQSLSLICTVTGYSITSDYSWHWIRQFPGNKLEWMGNIHYSGRINYNPSLRSRISITRDTSKNQFFLQLISVTTEDTATYYCATRRTFGNFEDYWGQGTTLTVSS
# VL: QIVLSQSPATLSVSPGEKVTMTCRSSSSVNYMHWYQQKPGSSPKPWIYATSTLASGVPARFSGSGSGTSYSLTISRVEAEDAATYYCQQWSSNPLTFGAGTKLELK
# B3: CHG1-M-MIA-6E4 (antibody, from a related filing, V domains shown)
# VH: EVQLVESGGALVKPGGSLKLSCAASGFTFSYYAMSWVRQTPEKRLEWVATISRGGNYIYYTDSVKGRFTISRDNAKNTLYLQMTSLRSEDTAMFYCASISDYDGAWLAYWGQGTTLTVSS
# VL: DVLMTQTPLSLPVSLGDQASISCRSSQSIIHTNGNTYLEWYLQKPGQSPKLLIYKISNRFSGVPDRFSGSGSGTDFTLKISRVEAEDLGVYYCFQGSHVPWTFGGGTKLEIKR
# B4: CHG1-M-MIA-19E9 (antibody, V domains shown)
# VH: DVQLQESGPGLVKPSQSLSLTCTVTGYSITSDYAWNWIRQFPGNKLEWMGFVSYSGTTKYNPSLKSRISITRDTSENQFFLQLNSVTSEDTATYYCARGYGFDYWGQGTTLTVSS
# VL: EIVLTQSPTTMAASPGEKITITCSATSSISSIYFHWYQQRPGFSPKLLIYRTSNLASGVPARFSGSGSGTSYSLTIGTMEAEDVATYYCQQGTTIPFTFGSGTKLEIK
# B5: CHG1-M-MIA-10F3 (antibody, from a related filing, V domains shown)
# VH: QVQLQQSAAELARPGASVKMSCKASGYTFTSYTMHWVKQRPGQGLEWIGYINPSSGYTEYNQKFKDKTTLTVDKSSTTSYMQLSSLTSDNSAVYYCARGGDWDVDWFVYWGQGTLVTVSA
# VL: QIVLTQSPAIMSASPGEKVTITCSASSSISYMHWFQQKPGTSPKLWIYSTSKLASGVPARFSGSGSGTSHSLTISRMEAEDAATYYCQHRSTYPFTFGSGTKLEIK
# B6: CHG1-M-MIA-14B4 (antibody, from a related filing, V domains shown)
# VH: QVQLQQPGAELVRPGASVKLSCKASGYSFTSYWMNWMKQRPGQGLEWIGMIHPSDSETRLNQKFKDKATLTVDKSSSTAYMQLNSPTSEDSAVYYCAREMGPYTLDYWGQGTSVTVSS
# VL: B1 VL with E17A, V30D, S39R, T74S, V83I, I93Y
# Target: MICA*007 expressed on C1R transfectant cells (human) (UniProt Q29983)
# Experiment: flow cytometry, MFI against antibody concentration on C1R-MICA*07 cells
row,EC50 (read off the curve) [µg/mL],Binder
1,1,B1
2,0.3,B2
3,1,B3

# Target: T1, MICA*001 expressed on transfected cells (human)
# Experiment: flow cytometry, MFI against antibody concentration on C1R-MICA*01 cells
row,EC50 (read off the curve) [µg/mL],Binder
1,1,B4
2,0.6,B3

# Target: MICA*004 expressed on C1R transfectant cells (human) (UniProt Q29983)
# Sequence (Q29983 other isoform, or with tags, fused parts or gaps limits assumed): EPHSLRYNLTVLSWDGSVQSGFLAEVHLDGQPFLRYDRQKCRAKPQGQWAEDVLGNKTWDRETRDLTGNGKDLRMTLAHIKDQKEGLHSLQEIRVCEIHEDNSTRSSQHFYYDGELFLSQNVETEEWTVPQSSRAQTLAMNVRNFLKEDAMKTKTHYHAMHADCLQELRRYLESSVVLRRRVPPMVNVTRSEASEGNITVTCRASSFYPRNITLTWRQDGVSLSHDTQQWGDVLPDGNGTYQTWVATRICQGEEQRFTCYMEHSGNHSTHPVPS
# Experiment: flow cytometry, MFI against antibody concentration on C1R-MICA*04 cells
row,EC50 (read off the curve) [µg/mL],Binder
1,0.2,B5
2,0.3,B1
3,0.2,B6
4,0.2,B2

# Target: MICA*008 expressed on C1R transfectant cells (human) (UniProt Q29983)
# Experiment: flow cytometry, MFI against antibody concentration on C1R-MICA*08 cells
row,EC50 (read off the curve) [µg/mL],Binder
1,0.3,B5
2,0.3,B1
3,0.3,B6
4,0.3,B2
